Data as given in patent US20250163117A1 (CURE GENETICS, published 2025).

Legend:
[1] = target: T1, human high-affinity IL-2 receptor IL-2Rαβγ on cells (human, UniProt P01589 22-272; P14784 27-551; P31785 23-369); test: cell-based or functional assay
T1 sequence (looked up) 1: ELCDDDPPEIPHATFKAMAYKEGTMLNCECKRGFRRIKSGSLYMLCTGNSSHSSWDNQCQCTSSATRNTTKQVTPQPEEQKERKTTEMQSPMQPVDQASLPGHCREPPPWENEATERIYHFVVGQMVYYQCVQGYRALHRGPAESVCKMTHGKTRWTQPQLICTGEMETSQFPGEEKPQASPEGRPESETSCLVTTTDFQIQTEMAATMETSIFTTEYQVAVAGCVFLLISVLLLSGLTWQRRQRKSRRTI
T1 sequence (looked up) 2: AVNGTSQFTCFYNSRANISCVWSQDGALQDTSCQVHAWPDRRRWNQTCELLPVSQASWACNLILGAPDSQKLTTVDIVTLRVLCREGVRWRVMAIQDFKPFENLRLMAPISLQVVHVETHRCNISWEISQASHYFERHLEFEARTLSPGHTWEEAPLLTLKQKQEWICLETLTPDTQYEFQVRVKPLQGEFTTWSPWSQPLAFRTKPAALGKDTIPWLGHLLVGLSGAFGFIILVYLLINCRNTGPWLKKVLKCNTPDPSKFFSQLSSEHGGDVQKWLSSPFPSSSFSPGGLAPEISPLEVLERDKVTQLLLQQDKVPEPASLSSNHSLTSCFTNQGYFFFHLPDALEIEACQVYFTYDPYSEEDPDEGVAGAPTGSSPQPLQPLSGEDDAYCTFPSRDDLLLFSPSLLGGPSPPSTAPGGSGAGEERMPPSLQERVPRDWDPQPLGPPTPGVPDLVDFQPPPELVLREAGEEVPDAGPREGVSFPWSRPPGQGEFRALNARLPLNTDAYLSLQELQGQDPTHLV
T1 sequence (looked up) 3: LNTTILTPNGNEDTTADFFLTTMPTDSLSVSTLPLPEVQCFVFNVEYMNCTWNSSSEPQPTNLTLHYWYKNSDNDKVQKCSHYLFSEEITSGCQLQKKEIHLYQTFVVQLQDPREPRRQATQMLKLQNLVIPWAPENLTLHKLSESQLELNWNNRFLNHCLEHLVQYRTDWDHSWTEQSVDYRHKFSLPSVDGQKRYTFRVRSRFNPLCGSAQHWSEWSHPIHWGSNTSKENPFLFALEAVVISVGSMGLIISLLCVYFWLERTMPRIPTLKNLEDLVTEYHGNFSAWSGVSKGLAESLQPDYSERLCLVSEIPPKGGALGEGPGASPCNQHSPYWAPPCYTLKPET

[2] = target: T2, human intermediate-affinity IL-2 receptor IL-2Rβγ on cells (human, UniProt P14784 27-551; P31785 23-369); test: cell-based or functional assay
T2 sequence (looked up) 1: T1 sequence (looked up) 2
T2 sequence (looked up) 2: T1 sequence (looked up) 3

B1: CP-trIL-2 012 (ligand)
chain: PTSSSTKKTQLQLEHLLLDLQMILNGINNYKNPLRPRDLISNINVIVLELKGSETTELKHLQSLEEELKDLEEVLNLAQSKNFHTIVEFLNRWITFSQSIISTLT
notes: H1-H3-H2-H4; loops 1 and 2 removed; de-Ala1, C58S, C125S, P65D
**Q.** How did the “% pSTAT5 in human PBMC at Low IL-2v concentration (2.5 nM per paragraph 254); western blot, pSTAT5/STAT5 normalised to 001 High” value [1] turn out when B1 was run?
**A.** 10.9%

**Q.** What about the “% pSTAT5 in human PBMC at High IL-2v concentration (25 nM per paragraph 254); western blot, pSTAT5/STAT5 normalised to 001 High” value [2] of the same binder?
**A.** 66.9%
